Data reported in patent EP0599274A1.

Target: HER4/p180erbB4 (human prototype HER4 polypeptide) (human)
Assay: cell-based or functional assay

increase in tyrosine phosphorylation of HER4 after 15 minutes incubation: 2.4 to 4 fold
Substance: recombinant rat neu differentiation factor (NDF) (from UniProt P43322 14-241) (ligand)
